One data set concerns CCK1R. Nature of the data set: Affinity of amidated gastrins for CCK1R. The data set is classed as binding.
Data set [1] is described as follows: Biological activity of PG26. The source says:
For data presented in FIGS. 2-4, 5A-5B and 6A-6E, the full length 80 amino acid rhPG was used (SEQ ID NO: 2), which was visualized by staining with fluorescently labeled primary or secondary antibodies. However, in order to examine the feasibility of using PG peptides for diagnostic and treatment purposes, synthesized FITC labeled PG fragments (PG26, SEQ ID NO 1: […]) conjugated with either radio- or fluorescently labeled imaging reagents (for diagnostic purposes), or with cytotoxic payloads (for therapeutic purposes) was studied. […] Endocytotic internalization of FITC-PG26 in PG responsive immortalized kidney embryonic cell line, HEK-293, was examined. Strong peri-nuclear co-localization of FITC-PG26 with Anx A2 was measured within 15 min of labeling in a chase experiment (FIG. 7). […] The homing potential of FITC-PG26 to Anx A2 over-expressing tumors, growing as xenografts in nude mice, was confirmed, as shown in FIGS. 8A-8E.

Data set [2] addresses T1, Anx A2 (Rattus norvegicus, UniProt Q07936).
T1 construct: the 36 kDa Anx A2 protein, prepared from cancer cells/tumor membranes; endogenous in cells
The following applies: Anx A2 prepared from cancer cells/tumor membranes; cited from earlier work.

Another data set relates to colon cancer xenograft. The data set is described as follows: Homing of FITC-PG26 to Anx A2 over-expressing tumors growing as xenografts in nude mice. The data set is classed as in vivo. Here is the method: FIGS. 8A-E depict 10-100 μg of FITC-PG-26 peptide was dissolved in 100 μl of saline was used to detect the tumor in nude mice. The images were captured in live mice after 1-60 minutes, with injection on the tumor site (FIG. 8A) or through tail vein (FIGS. 8B-D). In FIG. 8B, the localization of tumor cells are marked with arrows detected after 5 minutes post tail vein injection.
For data presented in FIGS. 2-4, 5A-5B and 6A-6E, the full length 80 amino acid rhPG was used (SEQ ID NO: 2), which was visualized by staining with fluorescently labeled primary or secondary antibodies. […] Strong peri-nuclear co-localization of FITC-PG26 with Anx A2 was measured within 15 min of labeling in a chase experiment (FIG. 7). […]
The 26 amino acid PG peptide (PG26), labeled with FITC at the N-terminal end, specifically homed to the site of a colon cancer xenograft, growing either under the skin or growing as a metastatic lesion in the liver. […] Even small tumor lesions were detected with FITC-PG26 after […] of tail vein injection (FIG. 8B). FITC-control peptide was not detected after 30 min of injecting into the tail vein (FIG. 8E), confirming the specificity of FITC-PG26 peptide for homing to tumors in situ.

Data set [3] concerns the target Anx A2 (Homo sapiens, UniProt P07355). The data set is described as follows: In vitro binding assay and co-IP of rhPG and ANX-II. The following applies: in vitro binding assay, FIG. 3. An excerpt:
Lane 1 is rhPG; lane 2 is ANX-II; lanes 3 and 4 are rhPG and ANX-II; lane 3 is IP with anti-PG (aPG); lane 4 is IP with anti-ANX-II (aANX-II). All the samples were processed for WB with both aPG and ANX-II.
(§1) Adenoma and adenocarcinomas tissue sections (from ovarian and colorectal cancers of patients) were positive for Anx A2 expression, while normal tissues were negative (FIGS. 4, 5A-5B). Immortalized intestinal epithelial cell line (IEC-18) are used, which responds to the growth and anti-apoptotic effects of PG peptides (9), for further investigating the biology of interaction of PG with Anx A2. Intra-cellular translocation of labeled PG was examined in IEC-18 cells. […] Using fluoroscense assisted sorting with labeled anti-Anx A2-Abs, presence of extracellular Anx A2 was confirmed on IEC-18 cells (FIG. 6B).

The test system of the next data set is IEC-18 cells. Nature of the data set: Intra-cellular translocation of PG in IEC-18 cells (confocal microscopy, pull down/WB, Anx A2 siRNA). The data set is classed as cell-based. The protocol:
FIGS. 6A-6E depict the binding of PG with ANXII. FIG. 6A depicts immuno-colocalization of ANXII/PG in IEC cells, incubated with PG. E. IEC-18 cells were seeded, on sterile glass cover slips. Following overnight culture cells were incubated with PG (1 nM) from 0-15 min, and washed 3× with chilled PBS. Cells were fixed in acetone:methanol for 20 min at −20° C., and incubated with anti-PG or anti-ANXII-Abs, followed by fluorescence labeling with second Abs. Images were captured by confocal microscopy at 60×. Insets represent computer assisted enlarged images. Arrows depict co-localization on membranes. […] Cells in culture were detached with liberase to make single cell suspensions and incubated with either non-immune IgG or anti-ANXII-Ab for 2 hours at room temperature, washed with chilled PBS followed by incubation with FITC-second-Ab for 1 hours at room temperature. FIG. 6C depicts IEC-18 cells in culture treated with PG for 0-15 min except for Lamp1 (treated for 0-30 min) at 37° C. and washed with chilled PBS 3×. Cells were processed for pull down with anti-PG-Ab and processed for WB analysis for either EEA1/ANXII/PG/Lamp1. […] The inset portion of the co-localization staining is also shown.
as §1
Since Anx A2 lacks transmembrane domains, mechanisms mediating translocation of Anx A2/PG from outer cell membranes towards intracellular compartments remains unknown. Anx A2 also binds transmembrane proteins such as CD44, which are over-expressed in cancer cells. Thus the tumor specific expression of CD44-like transmembrane proteins offers an additional level of cancer-specific regulation, allowing intra-cellular translocation of PG-Anx A2 only in tumor cells. […] Co-localization of PG/Anx A2 with the early endosomal marker (EEA1) was examined. Cellular lysates from IEC-18 cells, treated with PG for 0, 5 and 15 min, were pulled down with anti-PG Abs and processed for WB analysis for EEA1, Lamp1 (lysomal marker), Anx A2 and PG (FIG. 6C). Possible in situ co-localization of EEA1 with PG was also examined after 15 min of PG stimulation by confocal microscopy (FIG. 6D). […]

Data set [4] relates to immortalized cells (IEC, HEK-293) and cancer cell lines (from ovaries/colons). Nature of the data set: Co-localization of PG with Anx A2 in PG-responsive cells. The data set is classed as cell-based. The following applies: cells responsive to growth effects of PG peptides.
Excerpt: as §1

Data on seven molecules can be found in patent US20110085986A1, “Diagnosis and treatment of epithelial cancers using labeled/conjugated progastrin peptides” (priority 2009, published 2011).

Ends that are not written are not given here. Peptide text beside a SMILES is read from it. * marks the point of attachment. FITC = O=C1OC2(c3ccc(O)cc3Oc3cc(O)ccc32)c2ccc(NC(=S)*)cc21 Bounds are passed on as bounds.

T1 sequence (Q07936 whole entry): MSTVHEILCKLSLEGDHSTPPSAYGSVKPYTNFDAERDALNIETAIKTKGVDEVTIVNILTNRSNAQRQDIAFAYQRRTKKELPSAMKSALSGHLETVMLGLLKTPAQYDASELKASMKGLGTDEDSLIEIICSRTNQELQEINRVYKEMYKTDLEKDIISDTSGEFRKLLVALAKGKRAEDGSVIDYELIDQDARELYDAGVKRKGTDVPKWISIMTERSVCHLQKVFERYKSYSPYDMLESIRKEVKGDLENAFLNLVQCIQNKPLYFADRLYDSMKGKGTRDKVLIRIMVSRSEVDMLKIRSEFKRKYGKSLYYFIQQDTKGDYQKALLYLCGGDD
Sequence of Anx A2 (Homo sapiens, UniProt P07355) (P07355 whole entry, species assumed): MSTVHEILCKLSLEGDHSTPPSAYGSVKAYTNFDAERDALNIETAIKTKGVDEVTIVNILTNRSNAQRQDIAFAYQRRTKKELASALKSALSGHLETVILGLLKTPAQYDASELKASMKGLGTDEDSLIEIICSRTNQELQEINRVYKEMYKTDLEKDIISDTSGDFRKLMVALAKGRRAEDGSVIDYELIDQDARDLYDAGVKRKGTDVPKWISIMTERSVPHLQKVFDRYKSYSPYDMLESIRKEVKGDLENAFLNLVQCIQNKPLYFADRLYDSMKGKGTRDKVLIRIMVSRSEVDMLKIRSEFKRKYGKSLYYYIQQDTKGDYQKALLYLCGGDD

In the case of “G34: amidated gastrin (QLGPQGPPHLVADPSKKQGPWLEEEEEAYGWMDF-NH2; ends and bridges not checked; UniProt P01350 59-92, looked up)”, the “affinity for CCK1R” value in the data set on CCK1R is “much higher affinity”.
For G17: amidated gastrin, the “affinity for CCK1R” value with CCK1R is given as “much higher affinity”.
As for “QGPWLEEEEEAYGWMDFGRRSAEDEN (homing progastrin peptide specifically binding annexin2) [PG26, 26 amino acid PG peptide fragment]”, the biological activity entry in data set [1] is given as “biologically active”.
With “CCK8: cholecystokinin CCK8 [reference compound]”, the “Relative binding affinity (RBA) for the 36 kDa Anx A2 protein, rank order” value (from here on “Relative binding affinity (RBA)”) with Anx A2 [2] is on record as “no affinity”.
With `CSCC[C@H](NC(=O)[C@H](Cc1c[nH]c2ccccc12)NC(=O)CNC(=O)[C@H](Cc1ccc(O)cc1)NC(=O)[C@H](C)NC(=O)[C@H](CCC(=O)O)NC(=O)[C@H](CCC(=O)O)NC(=O)[C@H](CCC(=O)O)NC(=O)[C@H](CCC(=O)O)NC(=O)[C@H](CCC(=O)O)NC(=O)[C@H](CC(C)C)NC(=O)[C@H](Cc1c[nH]c2ccccc12)NC(=O)[C@@H]1CCCN1C(=O)CNC(=O)[C@H](CCC(N)=O)NC(=S)Nc1ccc2c(c1)C(=O)OC21c2ccc(O)cc2Oc2cc(O)ccc21)C(=O)N[C@@H](CC(=O)O)C(=O)N[C@@H](Cc1ccccc1)C(=O)NCC(=O)N[C@@H](CCCNC(=N)N)C(=O)N[C@@H](CCCNC(=N)N)C(=O)N[C@@H](CO)C(=O)N[C@@H](C)C(=O)N[C@@H](CCC(=O)O)C(=O)N[C@@H](CC(=O)O)C(=O)N[C@@H](CCC(=O)O)C(=O)N[C@@H](CC(N)=O)C(=O)O` [FITC-PG26] ({FITC}-QGPWLEEEEEAYGWMDFGRRSAEDEN-OH; N-terminus and C-terminus assumed), in the data set with colon cancer xenograft (i.v. injection through the tail vein, FIG. 8C), the “retention in the tumor” value is listed as roughly 60 min. Further, the “retention of fluorescence in tumor” value in the data set with colon cancer xenograft (injected intra-tumorally, FIG. 8A) was greater than 20 min.

B1: PG: full length 80 amino acid rhPG (SEQ ID NO: 2) (protein)
chain: SWKPRSQQPDAPLGTGANRDLELPWLEQQGPASHHRRQLGPQGPPHLVADPSKKQGPWLEEEEEAYGWMDFGRRSAEDEN
modifications: recombinant human progastrin
With B1, the “binding of Anx A2 and rhPG” value with Anx A2 [3] was “Direct binding”. For the same molecule, in the data set with IEC-18 cells (IEC18 cells treated with specific siRNA against Anx A2, FIG. 6E), the PG binding/uptake result is on record as “completely negative”. For the same molecule, the “localization of PG/Anx A2 after addition of PG” value in the data set on IEC-18 cells (IEC-18 cells, FIG. 6A) is “initial co-localization of PG with Anx A2 on the cellular membranes, followed by rapid intracellular localization”. Further, the “time to translocation of Anx A2 and PG into early endosomes” value in the data set with IEC-18 cells (after PG stimulation, IEC-18 cells) was no more than 5 min. The “increase in co-IP of Lamp1 with PG” value with IEC-18 cells (later time points, FIG. 6C) is roughly 5 fold. In the data set with Anx A2 [2], the “Relative binding affinity (RBA)” value is listed as “PG>G-Gly>G17”. For the same molecule, in data set [4], the “co-localization of PG with Anx A2” value is “strong co-localization”.

B2: G-Gly: glycine-extended gastrin, processing intermediate of progastrin (peptide)
peptide: B1 chain
As to B2, the “Relative binding affinity (RBA)” value in the data set with Anx A2 [2] is “PG>G-Gly>G17”.
